Assay results published in patent US12221483 (CHINA MEDICAL UNIVERSITY HOSPITAL, dated 2025).

Molecular target: T1, recombinant CD3E protein (UniProt P07766 23-126, limits assumed)
T1 construct: also called CD3ε; CD3 epsilon
Assay: SPR (BIAcore T200); fusion protein on exosomes (1x10^11) coated on CM5 chip, recombinant CD3E protein as analyte at 700-21.9 nM; fusion protein (1×10^11) coated on CM5 chip; recombinant CD3E as analyte

T1 sequence (P07766 23-126 limits assumed): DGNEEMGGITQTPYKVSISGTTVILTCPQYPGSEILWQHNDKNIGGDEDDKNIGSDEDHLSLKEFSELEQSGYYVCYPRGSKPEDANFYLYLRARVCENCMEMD

B1: fusion protein comprising anti-CD3 single domain antibody and exosomal protein CD63 (other)
chain: MAVEGGMKCVKFLLYVLLLAFCACAVGLIAVGVGAQLVLSQTIIQGATPGSLLPVVIIAVGVFLFLVAFVGCCGACKENYCLMITFAIFLSLIMLVEVAAAIAGYVFRDKVMSEFNNNFRQQMENYPKNNHTASAHVQLVESGGGSVQAGGSLRLSCTVSGVIFKNEYMGWFRQAPGKEREGVAAASPGGTITYYGDSVKGRFTISRDNAKNTVYLQMNRLKPEDTAMYYCALDPSTTSWSIIRHGPSLWRYSGRGTQVTVSSGSSILDRMQADFKCCGAANYTDWEKIPSMSKNRVPDSCCINVTVGCGINFNEKAIHKEGCVEKIGGWLRKNVLVVAAAALGIAFVEVLGIVFACCLVKSIRSGYEVM
notes: in the SPR assay the exosomes carrying the fusion protein (1x10^11) were coated on a CM5 chip; also called anti-CD3 single domain antibody-CD63 chimeric protein; CD3ε Nb-Exo
With B1 the Kd was 2.1 nM.
